{
  "source": "patent US20230340439",
  "about": "“SYNTHETIC MINIATURE CRISPR-CAS (CASMINI) SYSTEM FOR EUKARYOTIC GENOME ENGINEERING” (The Board of Trustees of the Leland Stanford Junior …, published 2023)",
  "key": {"[1]": {"target": "T1, dCasMINI-V2-VPR (D143R/T147R) (UniProt A0A482D308 SEQ:1-529)", "T1 chain": "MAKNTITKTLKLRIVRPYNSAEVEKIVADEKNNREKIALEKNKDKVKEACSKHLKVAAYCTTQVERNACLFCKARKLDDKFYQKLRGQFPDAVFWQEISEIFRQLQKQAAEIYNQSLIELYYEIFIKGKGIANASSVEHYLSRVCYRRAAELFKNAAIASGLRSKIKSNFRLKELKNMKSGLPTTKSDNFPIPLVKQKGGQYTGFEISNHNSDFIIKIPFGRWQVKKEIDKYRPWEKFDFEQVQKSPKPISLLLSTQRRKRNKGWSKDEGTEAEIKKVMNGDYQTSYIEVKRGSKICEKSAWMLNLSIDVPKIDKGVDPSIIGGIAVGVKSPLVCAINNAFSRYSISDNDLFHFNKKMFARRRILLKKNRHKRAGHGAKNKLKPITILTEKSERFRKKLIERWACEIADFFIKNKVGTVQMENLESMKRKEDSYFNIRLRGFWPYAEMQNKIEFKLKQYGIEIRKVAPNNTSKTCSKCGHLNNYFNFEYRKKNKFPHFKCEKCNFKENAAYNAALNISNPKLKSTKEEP", "test": "cell_activity; GFP activation; PAM TTTR", "conditions": "chain copies: 2", "procedure": "(§1) Using a doxycycline (Dox)-inducible TRE3G-EGFP HEK293T reporter cell line and a sgRNA targeting the promoter, activation efficiency of dCas14-VPR was measured. Wild-type HEK293T cells (ATCC) and the HEK293T TRE3G-GFP reporter line stably encoding EGFP under a Tet-On promoter (pTRE3G) (Y. Gao et al., Genome Res. 22, (2012): 1760-74) were cultured in DMEM with high glucose, sodium pyruvate and GlutaMAX (Thermo Fisher), additionally supplemented with 10% FBS (Sigma). Cells were grown at 37° C. and 5% CO₂ and maintained at confluency below 80%. All transfections were performed with TransIT-LT1 transfection reagent (Mirus) at a ratio of 3 µL reagent per µg of plasmid. Cells were plated 1 day before at 1×10⁵ cells/mL. For this and other GFP activation assays described in these Examples, 500 ng of dCas constructs and 250 ng sgRNA or crRNA plasmids were transfected to HEK293T TRE3G-GFP cells in 24-well plates. Transfected cells were analyzed 2 days post-transfection for GFP activation. Here, no reporter activation was observed (FIG. 3), implying the natural Cas14 system fails to function in the human genome context."}, "[2]": {"target": "T2, dCasMINI-V3-VPR (D143R/T147R/K330R) (UniProt A0A482D308 SEQ:1-529)", "T2 chain": "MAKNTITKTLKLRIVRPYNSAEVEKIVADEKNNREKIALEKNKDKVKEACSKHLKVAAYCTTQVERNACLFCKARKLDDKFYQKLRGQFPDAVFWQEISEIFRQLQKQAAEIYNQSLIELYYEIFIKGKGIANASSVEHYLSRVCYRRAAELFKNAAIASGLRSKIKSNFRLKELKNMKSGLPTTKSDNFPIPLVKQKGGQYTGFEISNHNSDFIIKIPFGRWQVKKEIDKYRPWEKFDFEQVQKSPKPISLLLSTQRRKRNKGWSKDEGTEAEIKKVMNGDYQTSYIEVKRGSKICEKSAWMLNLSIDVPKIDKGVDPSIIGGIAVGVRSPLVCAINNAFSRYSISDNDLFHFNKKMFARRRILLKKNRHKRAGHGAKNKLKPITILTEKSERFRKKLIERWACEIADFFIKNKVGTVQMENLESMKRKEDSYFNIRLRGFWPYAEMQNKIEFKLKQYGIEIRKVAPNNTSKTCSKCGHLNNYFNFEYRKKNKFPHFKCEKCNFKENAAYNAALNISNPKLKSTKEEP", "test": "cell_activity; GFP activation; PAM TTTR", "procedure": "as §1"}, "dCasMINI-V1-VPR (D143R)": {"target": "T3, dCasMINI-V1-VPR (D143R) (UniProt A0A482D308 SEQ:1-529)", "T3 chain": "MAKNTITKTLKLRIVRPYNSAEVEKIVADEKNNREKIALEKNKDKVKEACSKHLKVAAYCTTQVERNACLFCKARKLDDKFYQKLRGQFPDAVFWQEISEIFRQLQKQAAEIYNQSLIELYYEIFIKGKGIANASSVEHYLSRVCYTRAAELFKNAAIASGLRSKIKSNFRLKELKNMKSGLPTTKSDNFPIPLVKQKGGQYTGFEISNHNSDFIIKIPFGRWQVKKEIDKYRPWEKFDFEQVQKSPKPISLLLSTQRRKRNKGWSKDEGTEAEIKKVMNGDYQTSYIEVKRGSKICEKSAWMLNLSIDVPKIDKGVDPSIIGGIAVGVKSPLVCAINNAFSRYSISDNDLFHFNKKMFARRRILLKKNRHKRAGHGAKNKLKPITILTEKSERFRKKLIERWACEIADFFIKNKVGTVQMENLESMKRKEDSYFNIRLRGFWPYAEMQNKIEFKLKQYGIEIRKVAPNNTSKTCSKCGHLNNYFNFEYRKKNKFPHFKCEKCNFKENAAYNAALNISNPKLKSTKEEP", "test": "cell_activity; GFP activation; PAM TTTR", "conditions": "chain copies: 2", "procedure": "as §1"}, "[3]": {"target": "T4, dCasMINI-V4-VPR (D143R/T147R/K330R/E528R) (UniProt A0A482D308 SEQ:1-529, D326A,D510A)", "T4 sequence": "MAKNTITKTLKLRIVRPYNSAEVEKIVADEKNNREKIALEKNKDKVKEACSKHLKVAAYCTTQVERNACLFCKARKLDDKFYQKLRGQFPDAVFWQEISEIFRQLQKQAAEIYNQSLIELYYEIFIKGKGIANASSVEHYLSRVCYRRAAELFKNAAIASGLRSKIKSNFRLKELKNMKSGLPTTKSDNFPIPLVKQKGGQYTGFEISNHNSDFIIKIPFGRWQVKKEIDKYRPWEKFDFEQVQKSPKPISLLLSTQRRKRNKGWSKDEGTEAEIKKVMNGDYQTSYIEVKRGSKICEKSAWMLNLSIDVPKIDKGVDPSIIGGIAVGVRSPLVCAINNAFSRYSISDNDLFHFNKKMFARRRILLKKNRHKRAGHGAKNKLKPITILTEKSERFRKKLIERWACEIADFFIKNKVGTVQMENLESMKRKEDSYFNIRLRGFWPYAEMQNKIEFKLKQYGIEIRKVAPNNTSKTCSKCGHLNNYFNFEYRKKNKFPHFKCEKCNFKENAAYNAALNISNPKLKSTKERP", "test": "cell_activity; GFP activation; 1.15-fold over V3 in screen; PAM TTTR", "conditions": "tags: N-terminal SV40 NLS, C-terminal c-Myc NLS, mCherry"}, "[4]": {"target": "T5, dCas14-VPR (dUn1Cas12f1-VPR) (UniProt A0A482D308 SEQ:1-529)", "T5 chain": "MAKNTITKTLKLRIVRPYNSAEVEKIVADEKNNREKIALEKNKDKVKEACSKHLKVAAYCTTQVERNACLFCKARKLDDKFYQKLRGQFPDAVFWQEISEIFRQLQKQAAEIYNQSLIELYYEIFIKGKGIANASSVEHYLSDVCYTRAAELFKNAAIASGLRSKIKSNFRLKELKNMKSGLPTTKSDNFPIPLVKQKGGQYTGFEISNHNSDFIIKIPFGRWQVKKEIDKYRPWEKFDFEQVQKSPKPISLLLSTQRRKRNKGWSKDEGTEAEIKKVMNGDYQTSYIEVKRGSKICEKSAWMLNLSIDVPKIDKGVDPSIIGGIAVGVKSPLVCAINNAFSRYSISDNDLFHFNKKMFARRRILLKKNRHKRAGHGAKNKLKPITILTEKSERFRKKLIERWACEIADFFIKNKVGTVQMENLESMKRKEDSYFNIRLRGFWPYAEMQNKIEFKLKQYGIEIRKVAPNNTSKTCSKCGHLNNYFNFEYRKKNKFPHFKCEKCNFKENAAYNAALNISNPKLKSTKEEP", "test": "cell_activity; GFP activation, 3% GFP+ cells; PAM TTTR", "conditions": "chain copies: 2", "procedure": "as §1"}},
  "data": [
    {"binder": "sgRNA Design 2 (stem-loop truncation) targeting TRE3G ; TRE3G promoter target (ssRNA ; dsDNA, [-]) RNA: GGGCUUCACUGAUAAAGUGGAGAACCGCUUCACCAAAAGCUGUCCCUUAGGGGAUUAGAACUUGAGUGAAGGUGGGCUGCUUGCAUCAGCCUAAUGUCGAGAAGUGCUUUCUUCGGAAAGUAACCCUCGAAACAAAUUCAUUUGAAUGAAGGAAUGCAACCUCCCUAUCAGUGAUAGAGAACG DNA 1: TTTACTCCCTATCAGTGATAGAGAACGTAT DNA 2: ATACGTTCTCTATCACTGATAGGGAGTAAA", "values": [
      {"measurement": "activity", "setting": "[1]", "result": "1.55 fold over best single variant"},
      {"measurement": "activity", "setting": "[2]", "result": 1.26, "unit": "fold over D143R/T147R"},
      {"measurement": "activity", "setting": "dCasMINI-V1-VPR (D143R)", "result": "> 24", "unit": "fold over dCas14-VPR"},
      {"measurement": "activity", "setting": "[3]", "result": 244, "unit": "fold activation"},
      {"measurement": "activity", "setting": "[4]", "result": 3.6, "unit": "fold over non-targeting"}
    ]}
  ]
}
